Data set [1] deals with SEAP-APPsw fusion protein (secretory alkaline phosphatase fused to APP 581-695 with glutamic acid at position 17 of β-amyloid and Swedish mutations).
Data set [2] has as its system SEAP-APPwt fusion protein (secretory alkaline phosphatase fused to APP 581-695, no Swedish mutations).
In data set [3] the test system is BE11-hAPP695 with alanine at position 17 of β-amyloid.
The test system of data set [4] is BE11-hAPP695 with glutamic acid at position 17 of β-amyloid.
For data set [5], the system named is BE11-hAPP695 with lysine at position 17 of β-amyloid.
Chain of BE11-hAPP695 with lysine at position 17 of β-amyloid (chain, as listed by the source): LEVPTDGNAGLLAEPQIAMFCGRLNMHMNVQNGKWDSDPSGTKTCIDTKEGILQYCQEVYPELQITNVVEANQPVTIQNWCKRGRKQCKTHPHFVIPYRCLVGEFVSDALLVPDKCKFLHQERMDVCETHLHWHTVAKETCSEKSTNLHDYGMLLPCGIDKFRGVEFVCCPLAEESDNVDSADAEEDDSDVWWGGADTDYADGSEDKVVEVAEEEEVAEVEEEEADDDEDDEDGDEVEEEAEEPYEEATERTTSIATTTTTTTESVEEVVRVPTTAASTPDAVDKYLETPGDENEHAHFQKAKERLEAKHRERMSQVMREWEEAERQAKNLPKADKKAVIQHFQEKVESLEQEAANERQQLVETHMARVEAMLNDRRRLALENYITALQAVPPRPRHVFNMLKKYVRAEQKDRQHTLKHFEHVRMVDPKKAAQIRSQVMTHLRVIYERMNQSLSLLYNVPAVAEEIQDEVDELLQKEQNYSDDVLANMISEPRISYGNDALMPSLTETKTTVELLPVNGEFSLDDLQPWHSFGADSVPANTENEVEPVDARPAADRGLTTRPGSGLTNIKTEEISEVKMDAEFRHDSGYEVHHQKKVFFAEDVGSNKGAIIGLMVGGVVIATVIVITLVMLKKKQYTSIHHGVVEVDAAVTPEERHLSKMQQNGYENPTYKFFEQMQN
For data set [6], the system named is BE11-hAPP695 with proline at position 17 of β-amyloid.
Chain of BE11-hAPP695 with proline at position 17 of β-amyloid (chain, as listed by the source): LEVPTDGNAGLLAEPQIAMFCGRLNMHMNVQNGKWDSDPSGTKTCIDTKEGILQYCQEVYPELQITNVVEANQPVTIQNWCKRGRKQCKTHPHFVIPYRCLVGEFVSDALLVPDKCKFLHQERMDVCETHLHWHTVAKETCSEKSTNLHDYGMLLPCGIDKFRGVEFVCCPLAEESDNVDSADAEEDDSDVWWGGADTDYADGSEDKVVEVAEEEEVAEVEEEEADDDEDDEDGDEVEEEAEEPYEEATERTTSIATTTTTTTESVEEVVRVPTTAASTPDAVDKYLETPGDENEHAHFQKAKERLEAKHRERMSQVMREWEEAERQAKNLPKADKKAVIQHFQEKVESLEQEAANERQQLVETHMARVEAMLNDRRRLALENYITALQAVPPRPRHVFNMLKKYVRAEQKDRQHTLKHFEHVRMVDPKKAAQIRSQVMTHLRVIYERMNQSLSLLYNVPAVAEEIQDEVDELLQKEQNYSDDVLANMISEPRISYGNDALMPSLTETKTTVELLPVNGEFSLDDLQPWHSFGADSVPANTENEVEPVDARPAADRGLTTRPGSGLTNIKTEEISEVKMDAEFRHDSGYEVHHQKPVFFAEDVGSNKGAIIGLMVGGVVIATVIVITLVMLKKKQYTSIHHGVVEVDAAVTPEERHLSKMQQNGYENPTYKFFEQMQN
The subject of data set [7] is BE11-hAPP695 with tryptophan at position 16 of β-amyloid.

Chain of BE11-hAPP695 with glutamic acid at position 17 of β-amyloid (chain, as listed by the source): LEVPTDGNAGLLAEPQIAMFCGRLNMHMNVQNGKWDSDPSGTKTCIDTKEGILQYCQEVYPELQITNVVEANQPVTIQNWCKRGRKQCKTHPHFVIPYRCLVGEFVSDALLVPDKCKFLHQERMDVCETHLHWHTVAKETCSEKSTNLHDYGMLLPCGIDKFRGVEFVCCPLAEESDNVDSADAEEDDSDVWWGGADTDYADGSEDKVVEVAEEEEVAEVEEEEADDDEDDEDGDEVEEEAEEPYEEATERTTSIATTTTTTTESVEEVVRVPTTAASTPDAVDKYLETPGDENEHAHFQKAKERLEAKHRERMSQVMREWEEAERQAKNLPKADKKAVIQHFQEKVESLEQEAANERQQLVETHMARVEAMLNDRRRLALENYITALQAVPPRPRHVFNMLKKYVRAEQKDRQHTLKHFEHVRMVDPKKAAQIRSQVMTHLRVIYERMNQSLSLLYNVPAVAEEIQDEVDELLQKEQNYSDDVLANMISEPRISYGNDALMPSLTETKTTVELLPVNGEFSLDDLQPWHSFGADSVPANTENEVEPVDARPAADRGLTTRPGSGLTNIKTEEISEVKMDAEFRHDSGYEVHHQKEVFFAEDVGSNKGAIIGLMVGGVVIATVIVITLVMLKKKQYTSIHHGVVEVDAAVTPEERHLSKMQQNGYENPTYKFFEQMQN
Chain of BE11-hAPP695 with tryptophan at position 16 of β-amyloid (chain, as listed by the source): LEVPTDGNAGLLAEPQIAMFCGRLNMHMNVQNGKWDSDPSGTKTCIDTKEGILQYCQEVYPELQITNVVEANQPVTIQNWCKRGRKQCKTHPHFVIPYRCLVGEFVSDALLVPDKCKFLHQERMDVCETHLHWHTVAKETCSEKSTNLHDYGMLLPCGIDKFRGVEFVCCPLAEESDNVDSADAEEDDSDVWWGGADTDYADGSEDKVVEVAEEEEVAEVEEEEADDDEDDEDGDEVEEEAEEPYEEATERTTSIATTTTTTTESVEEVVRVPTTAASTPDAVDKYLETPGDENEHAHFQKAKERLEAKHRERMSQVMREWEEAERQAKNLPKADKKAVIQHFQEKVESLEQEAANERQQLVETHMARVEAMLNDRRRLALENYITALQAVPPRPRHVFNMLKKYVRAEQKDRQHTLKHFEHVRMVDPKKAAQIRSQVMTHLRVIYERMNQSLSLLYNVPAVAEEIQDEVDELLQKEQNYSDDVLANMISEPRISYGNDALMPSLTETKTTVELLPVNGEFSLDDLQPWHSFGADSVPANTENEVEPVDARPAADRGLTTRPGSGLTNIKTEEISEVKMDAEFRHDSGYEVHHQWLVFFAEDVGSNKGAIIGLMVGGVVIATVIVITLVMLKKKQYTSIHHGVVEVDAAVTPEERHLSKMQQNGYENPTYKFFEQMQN
Chain of BE11-hAPP695 with alanine at position 17 of β-amyloid (chain, as listed by the source): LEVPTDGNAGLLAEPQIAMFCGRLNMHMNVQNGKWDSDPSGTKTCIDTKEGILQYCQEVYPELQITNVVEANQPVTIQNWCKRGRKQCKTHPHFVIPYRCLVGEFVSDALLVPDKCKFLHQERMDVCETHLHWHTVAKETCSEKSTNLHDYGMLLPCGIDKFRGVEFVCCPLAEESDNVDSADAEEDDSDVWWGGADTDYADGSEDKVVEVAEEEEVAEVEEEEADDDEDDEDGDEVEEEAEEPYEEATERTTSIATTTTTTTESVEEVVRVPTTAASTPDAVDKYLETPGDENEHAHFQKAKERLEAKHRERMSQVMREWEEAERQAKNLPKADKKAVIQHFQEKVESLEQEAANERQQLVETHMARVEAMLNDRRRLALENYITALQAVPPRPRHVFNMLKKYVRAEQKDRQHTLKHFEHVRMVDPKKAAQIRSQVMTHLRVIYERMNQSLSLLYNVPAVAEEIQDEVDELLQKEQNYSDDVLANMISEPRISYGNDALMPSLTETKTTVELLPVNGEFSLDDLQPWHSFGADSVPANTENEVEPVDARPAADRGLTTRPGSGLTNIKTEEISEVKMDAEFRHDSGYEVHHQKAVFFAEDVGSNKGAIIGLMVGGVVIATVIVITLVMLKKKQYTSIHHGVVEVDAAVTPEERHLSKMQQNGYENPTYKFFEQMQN

As for “α-secretase (endogenous activity of the CHO-K1 cells of Example 2)”, the “α-cleavage product in culture supernatant, Western blotting” value in data set [1] and in data set [2] was “no α-cleavage product was detected in any culture supernatant” each time.

For “α-secretase (endogenous activity of the COS7 cells of Example 1)”, the “α-cleavage: amount of α-secretase cleavage product (sAPPα) in culture supernatant, Western blotting” value in data set [3] is reported as “↓”; in data set [4], 0; in data set [5] it was “↓↓”; in data set [6], 0; in data set [7], “↓↓”.

Regarding “β-secretase (endogenous activity of the CHO-K1 cells of Example 2)”, the β-amyloid production result in data set [1] was “produced 5 to 10 times as much β-amyloid”. Besides, the “β-secretase cleavage product in culture supernatant, Western blotting” value in data set [1] and in data set [2] was “a β-secretase cleavage product was detected only in the fusion protein expression cell line (S)” throughout.

For “β-secretase (endogenous activity of the COS7 cells of Example 1)”, the “β-cleavage: amount of β-secretase cleavage product (sAPPβ) in culture supernatant, Western blotting” value in data set [3] is “→”; in data set [4], “→”; in data set [5], “↑”; in data set [6] it was “→”; in data set [7], “→”.

Source of the values: patent US20060160146.
